Target: T1, SARS-CoV-2 WT (Wuhan-1) receptor binding domain (SARS-CoV-2, Wuhan-Hu-1, UniProt P0DTC2, biotin (EZ-Link Sulfo-NHS-LC-Biotin, average of four biotins per RBD molecule))
T1 construct: source: bought: Acro Biosystems (Cat #SPD-C52H3)
Experiment: BLI
Details: both partners purified

B1: ADI-81654 (Fab, V domains shown)
VH: QVQLKQSGPTLVKPTQTLTLTCTFSGFSLSTYGVGVGWIRQPPGKALEWLALIYYDDDKRYSPSLKSRLTITKDTSQNQVVLTMTNMDPVDTATYYCARHTIATIFDFDSWGQGTLVTVSS
VL: QSVLTQPASVSGSPGQSITISCTGTSSDVGGHNYVSWYQQHPGKAPKLMIYEVSNRPSGVSNRFSGSKSGNTASLTISGLQAEDEADYSCSSYASSTSPVVFGGVTKLTVL
Kd: 56 nM

— article PMC10180619 (Nature Communications, 2023)
